This note sets out measurements from article PMC8319846 (Frontiers in Microbiology, 2021).

Assay [1] concerns the target native Hla in S. aureus 8325-4 supernatants (Staphylococcus aureus 8325-4 (NCTC 8325 …, UniProt Q2G1X0)). Kind of assay: far-Western, overlay or dot blot. The settings on record: one partner purified.
The target of assay [2] is LukF (Staphylococcus aureus, strain , UniProt Q5FBD2). Kind of assay: ELISA. The settings on record: both partners purified. Background: In an ELISA, binding on a coated surface is turned into a signal by an enzyme label.
For assay [3], the target named is LukE (Staphylococcus aureus, strain , UniProt O54081). Nature of the assay: ELISA. The settings on record: both partners purified.
The target of assay [4] is LukD (Staphylococcus aureus, strain , UniProt O54082). Nature of the assay: ELISA. The note with it: both partners purified.
Assay [5] has as its target Hlb (Staphylococcus aureus, strain , UniProt P09978). Nature of the assay: ELISA. The note with it: both partners purified.
Assay [6] deals with HlgA (Staphylococcus aureus, strain , UniProt P0A074). Kind of assay: ELISA. The settings on record: both partners purified.
Assay [7] deals with HlgC (Staphylococcus aureus, strain , UniProt Q07227). Kind of assay: ELISA. The settings on record: both partners purified.
For assay [8], the target named is HlgB (Staphylococcus aureus, strain , UniProt P0A077). Kind of assay: ELISA. The settings on record: both partners purified.
HlgB, sequence (P0A077 26-325): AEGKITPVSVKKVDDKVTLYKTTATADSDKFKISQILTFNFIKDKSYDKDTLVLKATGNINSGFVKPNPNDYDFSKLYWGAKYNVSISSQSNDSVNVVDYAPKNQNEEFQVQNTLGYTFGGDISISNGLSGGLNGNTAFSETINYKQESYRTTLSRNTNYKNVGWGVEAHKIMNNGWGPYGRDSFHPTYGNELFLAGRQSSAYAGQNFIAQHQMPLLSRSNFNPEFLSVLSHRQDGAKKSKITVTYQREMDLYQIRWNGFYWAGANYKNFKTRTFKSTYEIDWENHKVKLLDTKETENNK

HlgA, sequence (P0A074 30-309): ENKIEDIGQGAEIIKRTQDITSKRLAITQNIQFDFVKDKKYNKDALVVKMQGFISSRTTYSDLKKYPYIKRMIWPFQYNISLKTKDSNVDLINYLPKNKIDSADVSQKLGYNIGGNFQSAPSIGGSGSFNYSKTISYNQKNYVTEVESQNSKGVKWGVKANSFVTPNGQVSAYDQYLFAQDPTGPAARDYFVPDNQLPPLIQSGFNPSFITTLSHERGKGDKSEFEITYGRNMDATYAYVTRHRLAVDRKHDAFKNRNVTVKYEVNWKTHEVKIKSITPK
native Hla in S. aureus 8325-4 supernatants (Staphylococcus aureus 8325-4, sequence (Q2G1X0 27-319): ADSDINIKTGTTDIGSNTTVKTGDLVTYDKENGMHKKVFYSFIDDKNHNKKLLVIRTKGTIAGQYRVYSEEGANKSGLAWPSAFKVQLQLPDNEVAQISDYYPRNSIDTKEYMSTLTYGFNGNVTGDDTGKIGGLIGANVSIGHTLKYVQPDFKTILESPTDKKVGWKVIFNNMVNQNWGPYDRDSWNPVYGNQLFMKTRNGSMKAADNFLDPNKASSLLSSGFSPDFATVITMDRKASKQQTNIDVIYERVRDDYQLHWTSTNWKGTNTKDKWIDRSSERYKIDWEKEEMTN
Hlb, sequence (P09978 35-330): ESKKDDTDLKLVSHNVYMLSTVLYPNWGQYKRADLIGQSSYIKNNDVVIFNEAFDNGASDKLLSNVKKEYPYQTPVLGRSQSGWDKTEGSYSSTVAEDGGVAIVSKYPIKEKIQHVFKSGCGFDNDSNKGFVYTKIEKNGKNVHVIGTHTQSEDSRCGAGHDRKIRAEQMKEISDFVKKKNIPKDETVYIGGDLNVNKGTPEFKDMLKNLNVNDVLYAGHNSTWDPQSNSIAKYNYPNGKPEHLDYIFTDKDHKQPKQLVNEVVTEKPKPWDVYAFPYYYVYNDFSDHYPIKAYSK
HlgC, sequence (Q07227 30-315): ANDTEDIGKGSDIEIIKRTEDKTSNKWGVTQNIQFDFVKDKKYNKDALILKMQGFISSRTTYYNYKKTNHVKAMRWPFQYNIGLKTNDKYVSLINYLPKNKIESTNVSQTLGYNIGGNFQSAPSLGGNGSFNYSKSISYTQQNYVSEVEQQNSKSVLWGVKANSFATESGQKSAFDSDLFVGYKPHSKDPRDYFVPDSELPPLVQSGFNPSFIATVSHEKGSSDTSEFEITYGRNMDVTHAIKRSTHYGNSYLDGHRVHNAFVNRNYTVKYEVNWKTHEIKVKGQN
LukF, sequence (P31715 26-323): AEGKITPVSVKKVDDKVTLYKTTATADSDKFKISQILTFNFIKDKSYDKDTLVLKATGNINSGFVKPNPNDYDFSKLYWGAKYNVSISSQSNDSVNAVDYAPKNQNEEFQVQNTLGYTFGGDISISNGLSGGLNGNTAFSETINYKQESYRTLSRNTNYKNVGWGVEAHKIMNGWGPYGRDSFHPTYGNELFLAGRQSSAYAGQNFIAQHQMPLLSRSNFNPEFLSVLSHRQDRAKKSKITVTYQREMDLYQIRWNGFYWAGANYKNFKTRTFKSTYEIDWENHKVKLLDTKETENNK
LukE, sequence (O54081 29-314): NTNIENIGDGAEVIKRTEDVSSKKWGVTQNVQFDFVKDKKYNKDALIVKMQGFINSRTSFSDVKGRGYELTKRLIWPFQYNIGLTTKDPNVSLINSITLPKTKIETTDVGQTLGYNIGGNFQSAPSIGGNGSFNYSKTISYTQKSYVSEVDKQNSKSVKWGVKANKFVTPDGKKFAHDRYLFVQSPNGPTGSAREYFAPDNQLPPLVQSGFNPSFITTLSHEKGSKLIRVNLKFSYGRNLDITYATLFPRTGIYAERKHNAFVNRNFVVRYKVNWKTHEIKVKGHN
LukD, sequence (O54082 27-327): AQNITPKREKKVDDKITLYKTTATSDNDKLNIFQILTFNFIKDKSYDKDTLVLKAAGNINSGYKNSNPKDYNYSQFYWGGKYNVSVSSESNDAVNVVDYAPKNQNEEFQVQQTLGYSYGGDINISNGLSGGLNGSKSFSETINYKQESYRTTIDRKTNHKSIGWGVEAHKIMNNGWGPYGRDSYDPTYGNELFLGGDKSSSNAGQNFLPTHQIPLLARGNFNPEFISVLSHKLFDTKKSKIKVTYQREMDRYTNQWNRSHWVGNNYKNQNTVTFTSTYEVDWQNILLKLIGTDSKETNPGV

B1: YG1 human anti-Hla monoclonal antibody (antibody, V domains shown)
VH: QVQLVQSGAEMQKPGASVKVSCKVTGYALASLSLHWVRQTPGAGLEWLGGLDPGHGETIYAEKLQGRVVMTGDTSTDTAYMQLSSLTSEDTAIYYCASDWLRHGFEFWGQGTTVTVSS
VL: EIVLTQSPATLSVSPGDGATLSCRASQSVSGNLAWYQKKPGQAPRLLIYDTSIRAAGVPPRFSGSGSGTEFTLTISSLQSEDFAVYYCQQYHNLPPLTFGPGTKLEIK
notes: also called YG1 mAb; source: expressed and purified as a full-length human IgG1 antibody
In the case of B1, the binding result was “binds” in assay [1]; “no binding (tested: 1 μg/ml)” in assay [2]; “no binding (tested: 1 μg/ml)” in assay [3]; “no binding (tested: 1 μg/ml)” in assay [4]; “no binding (tested: 1 μg/ml)” in assay [5]; “no binding (tested: 1 μg/ml)” in assay [6]. The binding result in assay [7] and in assay [8] was “no binding (tested: 1 μg/ml)” in each case.
